From publication doi:10.1101/2025.07.15.665015 (bioRxiv, 2025)

What was measured:
[1] = target: the molecule itself; test: single-molecule TIRF two-colour co-localisation
PKR [2] = target: T1, PKR (Homo sapiens, UniProt P19525 1-551); test: competition
PKRΔKD = PKRΔKD (Homo sapiens, UniProt P19525 1-184, del185-551); test: single-molecule colocalization
PKR [3] = target: T1, PKR; test: single-molecule colocalization
PKR [4] = target: T1, PKR; test: single-molecule colocalization; remark: listed apart in the source
PKR [5] = target: T1, PKR; test: competition; remark: listed apart in the source

B1: PKR(K-E) (K150E and K154E), Cy3-labelled (enzyme, human, UniProt P19525 1-551, looked up)
chain: MAGDLSAGFFMEELNTYRQKQGVVLKYQELPNSGPPHDRRFTFQVIIDGREFPEGEGRSKKEAKNAAAKLAVEILNKEKKAVSPLLLTTTNSSEGLSMGNYIGLINRIAQKKRLTVNYEQCASGVHGPEGFHYKCKMGQKEYSIGTGSTEQEAEQLAAKLAYLQILSEETSVKSDYLSSGSFATTCESQSNSLVTSTLASESSSEGDFSADTSEINSNSDSLNSSSLLMNGLRNNQRKAKRSLAPRFDLPDMKETKYTVDKRFGMDFKEIELIGSGGFGQVFKAKHRIDGKTYVIKRVKYNNEKAEREVKALAKLDHVNIVHYNGCWDGFDYDPETSDDSLESSDYDPENSKNSSRSKTKCLFIQMEFCDKGTLEQWIEKRRGEKLDKVLALELFEQITKGVDYIHSKKLIHRDLKPSNIFLVDTKQVKIGDFGLVTSLKNDGKRTRSKGTLRYMSPEQISSQDYGKEVDLYALGLILAELLHVCDTAFETSKFFTDLRDGIISDIFDKKEKTLLQKLLSKKPEDRPNTSEILRTLTVWKKSPEKNERHTC
modifications: Cy3 at the N-terminus, by sortase-mediated ligation of the peptide Cy3-CLPETGG
[1]
  binding result: binds

B2: 25-bp dsRNA (dsRNA)
RNA 1: GGGUUUUCCCAGUCACGACGUUGUA
RNA 2: UACAACGUCGUGACUGGGAAAACCC
PKR [2]
  binding result: binds

B3: 79-bp dsRNA (dsRNA)
RNA 1: GGGUUUUCCCAGUCACGACGUUGUAAAACGACGGCCAGUGAAUUCGAGCUCGGUACCCGGGGAUCCUCUAGAGUCGACC
RNA 2: GGUCGACUCUAGAGGAUCCCCGGGUACCGAGCUCGAAUUCACUGGCCGUCGUUUUACAACGUCGUGACUGGGAAAACCC
PKRΔKD
  binding result: binds
PKR [3]
  binding result: binds

B4: mini-VA (structured_RNA)
RNA: GGGUAUCAUGGCGGACGACCGGGGUUCGAACCCCGGAUCCGGCCGUCCGCCGUGAUACCC
PKR [4]
  binding result: binds

B5: 33-bp dsRNA (dsRNA)
RNA 1: GGGUUUUCCCAGUCACGACGUUGUAAAACGACG
RNA 2: CGUCGUUUUACAACGUCGUGACUGGGAAAACCC
PKR [5]
  binding result: binds
